From publication PMC6135609, “Poly(ADP-ribose) polymerase 1 searches DNA via a ‘monkey bar’ mechanism”

Key:
Conditions in all cases: protein: recombinant; (Ni-NTA; pET28a); blunt
PARP1 dZn1 = PARP1 dZn1 (human, UniProt P09874 97-1014, del2-96); experiment: stopped-flow fluorescence anisotropy; k1 similar to WT; Scheme 3 dissociation; 50 mM Tris-HCl pH 7.5, 50 mM NaCl, 1 mM MgCl2, 0.1 mM EDTA, 0.01% IGEPAL, 20 C
PARP1 dZn3 = PARP1 dZn3 (human, UniProt P09874 1-215+=ALAGSGSGSGSGSGLALLLAGSGSGSGSGAAL+367-1014, internal_change); experiment: as above
PARP1 dZn2 = PARP1 dZn2 (human, UniProt P09874 1-96+=ALAGSGSGSGSGSGLALLLAGSGSGSGSGAAL+207-1014, internal_change); experiment: as above
PARP1 WT = PARP1 WT (human, UniProt P09874 1-1014); experiment: stopped-flow fluorescence anisotropy; kinetic Kd; k1 3.1 nM-1 s-1, k-1 <10 s-1; 50 mM Tris-HCl pH 7.5, 50 mM NaCl, 1 mM MgCl2, 0.1 mM EDTA, 0.01% IGEPAL, 20 C
PARP1 dWGR = PARP1 dWGR (human, UniProt P09874 1-517+=ALAGSGSGSGSGSGLALLLAGSGSGSGSGAAL+655-1014, internal_change); experiment: stopped-flow fluorescence anisotropy; k1 similar to WT; Scheme 2 dissociation, no ternary complex; 50 mM Tris-HCl pH 7.5, 50 mM NaCl, 1 mM MgCl2, 0.1 mM EDTA, 0.01% IGEPAL, 20 C
Sequence of PARP1 dWGR (P09874 other isoform, or with tags, fused parts or gaps): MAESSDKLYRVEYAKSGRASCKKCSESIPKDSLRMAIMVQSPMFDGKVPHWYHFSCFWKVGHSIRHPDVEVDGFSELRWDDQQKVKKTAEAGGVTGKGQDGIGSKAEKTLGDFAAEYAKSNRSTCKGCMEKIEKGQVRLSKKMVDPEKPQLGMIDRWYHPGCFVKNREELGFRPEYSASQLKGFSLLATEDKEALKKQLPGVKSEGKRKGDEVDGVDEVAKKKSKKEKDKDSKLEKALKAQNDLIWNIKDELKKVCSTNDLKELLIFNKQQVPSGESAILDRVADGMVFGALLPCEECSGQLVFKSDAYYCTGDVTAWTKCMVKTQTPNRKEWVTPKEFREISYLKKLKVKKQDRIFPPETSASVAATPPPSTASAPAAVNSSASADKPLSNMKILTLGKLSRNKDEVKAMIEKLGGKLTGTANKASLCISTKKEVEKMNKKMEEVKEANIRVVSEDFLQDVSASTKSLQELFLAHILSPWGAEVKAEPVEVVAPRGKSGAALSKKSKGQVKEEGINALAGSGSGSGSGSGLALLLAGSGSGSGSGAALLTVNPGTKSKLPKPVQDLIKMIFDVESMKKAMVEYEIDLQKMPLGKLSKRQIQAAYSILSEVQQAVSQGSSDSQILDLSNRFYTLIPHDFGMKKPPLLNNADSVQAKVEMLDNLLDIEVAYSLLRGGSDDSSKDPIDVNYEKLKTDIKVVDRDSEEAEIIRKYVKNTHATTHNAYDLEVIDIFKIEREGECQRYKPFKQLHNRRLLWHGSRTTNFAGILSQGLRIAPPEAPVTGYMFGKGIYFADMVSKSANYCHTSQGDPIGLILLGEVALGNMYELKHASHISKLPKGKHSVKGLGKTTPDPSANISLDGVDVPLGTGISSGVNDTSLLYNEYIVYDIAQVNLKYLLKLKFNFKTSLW

Sequence of PARP1 WT (P09874 whole entry): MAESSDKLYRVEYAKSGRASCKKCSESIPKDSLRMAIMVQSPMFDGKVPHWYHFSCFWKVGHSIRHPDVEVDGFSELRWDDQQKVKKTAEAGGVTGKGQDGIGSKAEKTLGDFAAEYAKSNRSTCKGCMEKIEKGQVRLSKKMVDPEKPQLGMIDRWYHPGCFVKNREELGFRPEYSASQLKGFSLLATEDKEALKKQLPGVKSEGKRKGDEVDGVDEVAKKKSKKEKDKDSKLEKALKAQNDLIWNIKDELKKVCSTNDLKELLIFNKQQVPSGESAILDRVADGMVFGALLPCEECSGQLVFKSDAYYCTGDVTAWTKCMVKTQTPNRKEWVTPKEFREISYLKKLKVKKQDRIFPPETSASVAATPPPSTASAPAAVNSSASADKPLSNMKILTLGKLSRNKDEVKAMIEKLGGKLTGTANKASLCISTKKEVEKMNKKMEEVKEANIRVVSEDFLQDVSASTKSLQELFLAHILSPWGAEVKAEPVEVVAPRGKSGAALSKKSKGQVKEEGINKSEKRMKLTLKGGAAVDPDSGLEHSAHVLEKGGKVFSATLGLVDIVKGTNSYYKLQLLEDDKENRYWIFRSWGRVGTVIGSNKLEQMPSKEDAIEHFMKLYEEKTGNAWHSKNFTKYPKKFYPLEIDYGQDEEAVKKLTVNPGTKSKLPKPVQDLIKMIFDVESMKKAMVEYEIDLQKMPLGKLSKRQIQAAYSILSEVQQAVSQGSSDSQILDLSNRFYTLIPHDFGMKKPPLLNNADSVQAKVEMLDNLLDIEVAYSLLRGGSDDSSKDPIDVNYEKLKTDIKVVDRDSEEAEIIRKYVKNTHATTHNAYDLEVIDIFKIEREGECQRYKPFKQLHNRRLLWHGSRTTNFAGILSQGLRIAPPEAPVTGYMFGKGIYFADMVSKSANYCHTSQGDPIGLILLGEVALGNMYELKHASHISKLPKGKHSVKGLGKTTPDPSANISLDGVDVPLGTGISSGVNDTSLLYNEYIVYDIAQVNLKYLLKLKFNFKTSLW
Sequence of PARP1 dZn3 (P09874 other isoform, or with tags, fused parts or gaps): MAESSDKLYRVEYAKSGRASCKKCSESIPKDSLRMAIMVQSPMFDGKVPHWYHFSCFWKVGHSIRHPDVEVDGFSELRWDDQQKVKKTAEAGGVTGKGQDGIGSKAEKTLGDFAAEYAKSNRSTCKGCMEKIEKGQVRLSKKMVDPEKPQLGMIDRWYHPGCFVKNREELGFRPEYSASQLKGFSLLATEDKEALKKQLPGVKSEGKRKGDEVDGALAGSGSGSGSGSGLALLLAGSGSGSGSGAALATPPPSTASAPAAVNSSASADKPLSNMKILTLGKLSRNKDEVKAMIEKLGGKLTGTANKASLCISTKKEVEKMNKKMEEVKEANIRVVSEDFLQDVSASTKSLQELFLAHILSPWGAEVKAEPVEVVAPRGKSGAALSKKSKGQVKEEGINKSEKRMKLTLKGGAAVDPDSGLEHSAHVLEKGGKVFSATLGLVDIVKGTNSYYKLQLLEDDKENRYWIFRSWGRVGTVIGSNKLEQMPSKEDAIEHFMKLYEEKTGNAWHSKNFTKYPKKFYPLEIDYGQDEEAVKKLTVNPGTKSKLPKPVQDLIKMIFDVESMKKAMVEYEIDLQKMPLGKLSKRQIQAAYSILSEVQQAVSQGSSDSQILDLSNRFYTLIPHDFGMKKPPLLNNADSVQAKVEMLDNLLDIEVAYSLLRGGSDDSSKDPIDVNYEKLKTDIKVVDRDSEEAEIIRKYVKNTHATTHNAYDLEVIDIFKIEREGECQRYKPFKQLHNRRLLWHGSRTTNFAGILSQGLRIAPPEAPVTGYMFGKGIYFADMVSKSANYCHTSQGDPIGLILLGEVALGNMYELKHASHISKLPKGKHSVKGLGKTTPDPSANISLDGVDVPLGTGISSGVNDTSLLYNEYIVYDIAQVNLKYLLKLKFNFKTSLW
Sequence of PARP1 dZn1 (P09874 97-1014, stated change not applied): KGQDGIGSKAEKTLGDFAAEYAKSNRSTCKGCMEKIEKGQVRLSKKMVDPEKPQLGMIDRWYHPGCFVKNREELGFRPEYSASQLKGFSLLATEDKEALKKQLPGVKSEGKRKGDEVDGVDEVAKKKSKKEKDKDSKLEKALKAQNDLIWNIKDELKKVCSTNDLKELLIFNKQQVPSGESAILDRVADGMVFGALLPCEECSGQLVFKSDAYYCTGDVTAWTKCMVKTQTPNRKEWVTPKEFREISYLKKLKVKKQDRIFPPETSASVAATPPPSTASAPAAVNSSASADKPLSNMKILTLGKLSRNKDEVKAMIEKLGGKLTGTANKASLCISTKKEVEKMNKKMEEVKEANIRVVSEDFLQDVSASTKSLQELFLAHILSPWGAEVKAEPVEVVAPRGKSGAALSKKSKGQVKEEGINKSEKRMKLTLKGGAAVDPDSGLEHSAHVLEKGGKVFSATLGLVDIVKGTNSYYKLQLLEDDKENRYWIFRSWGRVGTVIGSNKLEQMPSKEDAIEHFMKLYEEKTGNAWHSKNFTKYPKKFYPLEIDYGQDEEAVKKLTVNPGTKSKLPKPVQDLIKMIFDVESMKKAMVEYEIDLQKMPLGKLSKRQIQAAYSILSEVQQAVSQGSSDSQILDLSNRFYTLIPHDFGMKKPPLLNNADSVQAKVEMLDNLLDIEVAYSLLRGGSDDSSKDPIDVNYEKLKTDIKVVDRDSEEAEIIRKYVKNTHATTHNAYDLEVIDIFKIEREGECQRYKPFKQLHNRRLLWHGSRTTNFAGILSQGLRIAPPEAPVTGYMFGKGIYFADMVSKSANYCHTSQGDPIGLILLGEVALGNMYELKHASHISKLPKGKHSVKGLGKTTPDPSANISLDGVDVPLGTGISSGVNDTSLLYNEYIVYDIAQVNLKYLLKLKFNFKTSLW
Sequence of PARP1 dZn2 (P09874 other isoform, or with tags, fused parts or gaps): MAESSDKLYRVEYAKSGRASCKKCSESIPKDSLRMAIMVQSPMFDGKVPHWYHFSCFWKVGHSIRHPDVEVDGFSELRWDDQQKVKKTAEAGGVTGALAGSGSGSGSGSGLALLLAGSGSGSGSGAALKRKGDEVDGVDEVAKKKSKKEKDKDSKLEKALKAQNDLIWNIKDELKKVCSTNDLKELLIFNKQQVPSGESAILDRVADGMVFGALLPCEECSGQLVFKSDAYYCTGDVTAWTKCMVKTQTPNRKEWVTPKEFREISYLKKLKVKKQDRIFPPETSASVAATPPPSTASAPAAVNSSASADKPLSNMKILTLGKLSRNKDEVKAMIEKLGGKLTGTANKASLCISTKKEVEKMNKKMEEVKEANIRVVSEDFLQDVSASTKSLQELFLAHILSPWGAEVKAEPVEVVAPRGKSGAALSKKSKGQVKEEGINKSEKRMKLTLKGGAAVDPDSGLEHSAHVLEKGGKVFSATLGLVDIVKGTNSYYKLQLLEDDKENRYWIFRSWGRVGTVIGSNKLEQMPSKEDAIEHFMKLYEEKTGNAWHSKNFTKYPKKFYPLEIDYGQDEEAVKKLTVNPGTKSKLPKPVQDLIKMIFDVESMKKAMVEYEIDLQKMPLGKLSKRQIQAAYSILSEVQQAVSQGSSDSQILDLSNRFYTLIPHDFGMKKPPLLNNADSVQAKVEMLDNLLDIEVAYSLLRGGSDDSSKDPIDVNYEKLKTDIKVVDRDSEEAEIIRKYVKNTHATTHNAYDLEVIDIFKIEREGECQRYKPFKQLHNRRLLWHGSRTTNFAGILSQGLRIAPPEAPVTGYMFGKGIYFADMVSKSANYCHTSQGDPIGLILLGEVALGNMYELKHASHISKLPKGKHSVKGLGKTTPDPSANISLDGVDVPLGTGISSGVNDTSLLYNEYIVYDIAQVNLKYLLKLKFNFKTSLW

B1: p18mer* (labeled DSB model) (dsDNA)
DNA 1: GGGTTGCGGCCGCTTGGG
DNA 2: CCCAAGCGGCCGCAACCC
modifications: 5'-phosphate
- binding result (PARP1 dZn1): binds
- binding result (PARP1 dZn3): binds
- binding result (PARP1 dZn2): binds
- Kd (PARP1 WT): < 3 nM
- binding result (PARP1 dWGR): binds
